According to patent US20240132859A1, “MODIFIED DEHALOGENASE WITH EXTENDED SURFACE LOOP REGIONS” (Promega Corporation, priority 2022, published 2024):
Where a chain is given by its changes, count along the chain named. In names and notes the source's numbering stands.

B1: HaloTag-178-(L1-3)cpLgBiT+4 67/68 (E4D, Q42M, M106K, T144D)-179: SEQ ID NO: 93 (protein)
chain: GSEIGTGFPFDPHYVEVLGERMHYVDVGPRDGTPVLFLHGNPTSSYVWRNIIPHVAPTHRCIAPDLIGMGKSDKPDLGYFFDDHVRFMDAFIEALGLEEVVLVIHDWGSALGFHWAKRNPERVKGIAFMEFIRPIPTWDEWPEFARETFQAFRTTDVGRKLIIDQNVFIEGTLPMGVVGGSSADQMAQIEEVFKVVYPVDDHHFKVILPYGTLVIDGVTPNKLNYFGRPYEGIAVFDGKKITVTGTLWNGNKIIDERLIDPDGSMLFRVTINSGGTGGSGGTGGSMVFTLDDFVGDWEQTAAYNLDQVLEQGGVSSLLQNLAVSVTPIMRIVRSGENALKIDIHVIIPYEGLRPLTEVEMDHYREPFLNPVDREPLWRFPNELPIAGEPANIVALVEEYMDWLHQSPVPKLLFWGTPGVLIPPAEAARLAKSLPNCKAVDIGPGLNLLQEDNPDLIGSEIARWLSTLEISG
B2: HaloTag-178-(L1-3)cpLgBiT+4 67/68 (E4D, Q42M, M106K, T144D, R112H, V127T, K123E)- 179: SEQ ID NO: 106 (protein)
chain: B1 chain with R228H, K239E, V243T

Assays:
[1] = test system: HeLa cells expressing HiBiT-tagged GAPDH; assay: Complementation-based chimeras transfected into genome edited HeLa cells expressing HiBiT-tagged GAPDH: expression, brightness, BRET; type: cell-based
Procedure: FIG. 23 A-G. Characterization of transiently expressed complementation-based chimeras incorporating flexible linkers and LgBiT+4 circularly permuted at two alternative sites (i.e., 67/68 or 49/50). Constructs encoding the chimeras were transfected into genome edited HeLa cells expressing HiBiT-tagged GAPDH. Cells were evaluated for expression, brightness, and efficiency of intramolecular BRET to a bound TMR ligand. (A) Structure of the HALOTAG-cpLGBIT chimeras. (B) Expression levels. Lysates from cells labeled with 1 μM HaloTag-TMR ligand were resolved on SDS-PAGE and scanned on a fluorescent imager. Expression levels quantitated using Image J software were normalized to the expression of HaloTag178-cpLgBIT+4 67/68-179. (C) Total luminescence from cells treated with 20 μM fluorofurimazine. (D) Intramolecular BRET efficiencies for cells treated with 500 nM HaloTag-TMR ligand.

[2] = Total luminescence (brightness) of purified fusions and chimeras treated with fluorofurimazine; type: biochemical; conditions: 6 nM chimeras complemented with 60 nM VS-HiBiT; compared with HT-178(L1-3)cpLgBiT+4 67/68-179
Source text: (§1) FIG. 9A-D. Characteristics of HaloTag-NLuc fusions and chimeras generated by insertion of circularly-permuted NanoLuc (cpNLuc), circularly-permuted thermostable NanoLuc (cptsNLuc), and circularly-permuted thermostable NanoLuc with a point mutation, F164C (cptsNLuc(F164C)) into loops 165 and 180. Fusion and chimeras were expressed in E. coli, purified, and compared for binding kinetics of a chloroalkane-TMR ligand, brightness of luminescence, and efficiency of intramolecular BRET to a bound TMR ligand. (A) Chimera structures (B) Binding kinetics of 2.5 nM chloroalkane-TMR to 20 nM fusions, and chimeras monitored via fluorescent polarization (C) Total luminescence for 6 nM fusions, and chimeras treated with 20 μM fluorofurimazine (D) Intramolecular BRET efficiencies for 6 nM fusions, and chimeras that were labeled with 5-fold molar excess of chloroalkane-TMR and treated with 20 μM fluorofurimazine.
(§2) FIG. 13A-B. Luminescence and BRET efficiencies of HaloTag-LgBiT fusions, and chimeras generated by insertion of LgBiT and circularly-permuted LgBiT (cpLgBiT) into loop 180. […]
(§3) FIG. 19 A-E. Biochemical characterization of chimeras generated by inserting a circularly permuted NanoLuc to HaloTag's loops 180 and 194/195. […] (C) Binding kinetics of 2.5 nM HaloTag-TMR ligand to 20 nM chimeras monitored via fluorescent polarization. […]

[3] = Intramolecular BRET efficiency of purified fusions and chimeras to a bound TMR ligand; type: biochemical; conditions: 6 nM chimeras complemented with 60 nM VS-HiBiT; compared with HT-178(L1-3)cpLgBiT+4 67/68-179
Source text: as §1, §2, §3

VS-HiBiT peptide = assay: Binding affinity of complementation-based chimeras to VS-HiBiT peptide; conditions: compared with HT-178(L1-3)cpLgBiT+4 67/68-179
Procedure: FIG. 22 A-I. Biochemical characterization of complementation-based chimeras incorporating flexible linkers and LgBiT+4 circularly permuted at two alternative sites (i.e., 67/68 or 49/50). (A) Structure of the HALOTAG-cpLGBIT chimeras. (B-C) Influence of flexible linkers on binding kinetics of 2.5 nM HaloTag-TMR ligand to 20 nM chimeras, which were complemented with 200 nM VS-HiBiT. (C-D) Influence of flexible linkers on binding affinity to a VS-HiBiT peptide. (E-F) Total luminescence for 6 nM chimeras complemented with 60 nM VS-HiBiT and treated with 20 μM fluorofurimazine. (G-I) Intramolecular BRET efficiencies for 6 nM chimeras complemented with 60 nM VS-HiBiT and covalently labeled with HaloTag-TMR ligand.
FIG. 25 A-E. Influence of additional LgTrip mutations on biochemical properties of the lead complementation-based chimera HaloTag178(L1-3)-cpLgBiT+4-179. Annotations of the additional mutations are based on a full length non disrupted NanoLuc protein (A) Structure of the HALOTAG-cpLGBIT chimeras (B) Influence of mutations on binding affinities to the VS-HiBiT peptide. (C) Influence of mutations on brightness and efficiency of intramolecular BRET to a bound TMR ligand for 6 nM chimeras complemented with 60 nM VS-HiBiT. (D-E) Binding kinetics of 2.5 nM HaloTag-TMR ligand to 20 nM or 80 nM chimeras, which were complemented with 200 nM or 800 nM VS-HiBiT, respectively.
FIG. 26 A-C. […]

[4] = mammalian cells, among the tested HALOTAG-cpLGBIT chimeras

| binding affinity to VS-HiBiT (VS-HiBiT peptide) | Molecule | expression ([1]; genome-edited HeLa cells expressing HiBiT-tagged-GAPDH) | BRET efficiency [1, 4] | brightness [1, 4] | brightness [2] | BRET efficiency [3] |
| --- | --- | --- | --- | --- | --- | --- |
| – | B1 | highest | highest | highest | – | – |
| significantly higher affinity | B2 | – | – | – | similar | similar |
